Experimental data as given in IntAct's records for PubMed 31515488.

B1: Zinc finger protein 488 (Homo sapiens), Q96MN9 (parent)
chain: MPEWPPCLSVAPALVITMAAGKGAPLSPSAENRWRLSEPELGRGCKPVLLEKTNRLGPEAAVGRAGRDVGSAELALLVAPGKPRPGKPLPPKTRGEQRQSAFTELPRMKDRQVDAQAQEREHDDPTGQPGAPQLTQNIPRGPAGSKVFSVWPSGARSEQRSAFSKPTKRPAERPELTSVFPAGESADALGELSGLLNTTDLACWGRLSTPKLLVGDLWNLQALPQNAPLCSTFLGAPTLWLEHTQAQVPPPSSSSTTSWALLPPTLTSLGLSTQNWCAKCNLSFRLTSDLVFHMRSHHKKEHAGPDPHSQKRREEALACPVCQEHFRERHHLSRHMTSHS
partner: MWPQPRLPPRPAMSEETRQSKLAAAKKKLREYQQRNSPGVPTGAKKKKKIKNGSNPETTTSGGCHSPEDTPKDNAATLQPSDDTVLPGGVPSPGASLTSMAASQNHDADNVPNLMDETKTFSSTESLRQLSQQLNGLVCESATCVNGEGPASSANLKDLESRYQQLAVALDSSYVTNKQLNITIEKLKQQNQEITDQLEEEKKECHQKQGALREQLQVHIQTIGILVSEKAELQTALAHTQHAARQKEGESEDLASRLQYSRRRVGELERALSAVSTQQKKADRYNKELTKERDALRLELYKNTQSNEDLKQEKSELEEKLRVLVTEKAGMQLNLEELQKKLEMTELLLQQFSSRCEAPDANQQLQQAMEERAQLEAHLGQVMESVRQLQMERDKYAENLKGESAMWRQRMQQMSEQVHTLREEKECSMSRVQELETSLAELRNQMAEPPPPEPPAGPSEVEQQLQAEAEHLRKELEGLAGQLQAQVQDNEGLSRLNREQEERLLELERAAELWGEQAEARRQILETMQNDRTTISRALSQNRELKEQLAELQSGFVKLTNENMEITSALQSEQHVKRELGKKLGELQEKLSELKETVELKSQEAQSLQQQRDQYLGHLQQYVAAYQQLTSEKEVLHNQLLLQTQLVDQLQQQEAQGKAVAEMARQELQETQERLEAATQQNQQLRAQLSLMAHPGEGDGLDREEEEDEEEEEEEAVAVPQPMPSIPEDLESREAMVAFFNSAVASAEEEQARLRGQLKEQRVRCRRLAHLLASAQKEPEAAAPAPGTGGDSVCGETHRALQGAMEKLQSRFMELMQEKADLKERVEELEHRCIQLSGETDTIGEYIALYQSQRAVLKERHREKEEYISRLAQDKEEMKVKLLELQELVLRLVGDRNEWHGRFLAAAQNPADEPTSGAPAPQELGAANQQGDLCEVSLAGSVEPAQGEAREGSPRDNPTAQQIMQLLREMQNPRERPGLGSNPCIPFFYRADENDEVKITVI
B2: Protein sprouty homolog 1 (Homo sapiens), O43609 (parent)
chain: MDPQNQHGSGSSLVVIQQPSLDSRQRLDYEREIQPTAILSLDQIKAIRGSNEYTEGPSVVKRPAPRTAPRQEKHERTHEIIPINVNNNYEHRHTSHLGHAVLPSNARGPILSRSTSTGSAASSGSNSSASSEQGLLGRSPPTRPVPGHRSERAIRTQPKQLIVDDLKGSLKEDLTQHKFICEQCGKCKCGECTAPRTLPSCLACNRQCLCSAESMVEYGTCMCLVKGIFYHCSNDDEGDSYSDNPCSCSQSHCCSRYLCMGAMSLFLPCLLCYPPAKGCLKLCRRCYDWIHRPGCRCKNSNTVYCKLESCPSRGQGKPS
partner: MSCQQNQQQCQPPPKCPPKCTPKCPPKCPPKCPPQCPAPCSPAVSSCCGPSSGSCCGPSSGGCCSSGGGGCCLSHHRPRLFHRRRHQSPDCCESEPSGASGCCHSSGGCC
B3: Cyclin-D1-binding protein 1 (Homo sapiens), O95273 (parent)
chain: MASATAPAAAVPTLASPLEQLRHLAEELRLLLPRVRVGEAQETTEEFNREMFWRRLNEAAVTVSREATTLTIVFSQLPLPSPQETQKFCEQVHAAIKAFIAVYYLLPKDQGITLRKLVRGATLDIVDGMAQLMEVLSVTPTQSPENNDLISYNSVWVACQQMPQIPRDNKAAALLMLTKNVDFVKDAHEEMEQAVEECDPYSGLLNDTEENNSDNHNHEDDVLGFPSNQDLYWSEDDQELIIPCLALVRASKACLKKIRMLVAENGKKDQVAQLDDIVDISDEISPSVDDLALSIYPPMCHLTVRINSAKLVSVLKKALEITKASHVTPQPEDSWIPLLINAIDHCMNRIKELTQSELEL
partner: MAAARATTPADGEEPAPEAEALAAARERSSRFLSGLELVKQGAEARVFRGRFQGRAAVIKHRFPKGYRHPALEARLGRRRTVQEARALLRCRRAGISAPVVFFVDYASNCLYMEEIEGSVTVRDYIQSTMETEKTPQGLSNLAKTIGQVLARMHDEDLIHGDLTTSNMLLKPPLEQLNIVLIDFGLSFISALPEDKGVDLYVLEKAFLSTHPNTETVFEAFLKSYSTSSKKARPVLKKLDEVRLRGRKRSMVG
B4: Zinc finger CCCH-type with G patch domain-containing protein (Homo sapiens), Q8N5A5 (parent)
chain: MDEESLESALQTYRAQLQQVELALGAGLDSSEQADLRQLQGDLKELIELTEASLVSVRKSSLLAALDEERPGRQEDAEYQAFREAITEAVEAPAAARGSGSETVPKAEAGPESAAGGQEEEEGEDEEELSGTKVSAPYYSSWGTLEYHNAMVVGTEEAEDGSAGVRVLYLYPTHKSLKPCPFFLEGKCRFKENCRFSHGQVVSLDELRPFQDPDLSSLQAGSACLAKHQDGLWHAARITDVDNGYYTVKFDSLLLREAVVEGDGILPPLRTEATESDSDSDGTGDSSYARVVGSDAVDSAQSSALCPSLAVVGSDAVDSGTCSSAFAGWEVHTRGIGSRLLTKMGYEFGKGLGRHAEGRVEPIHAVVLPRGKSLDQCVETLQKQTRVGKAGTNKPPRCRGRGARPGGRPAPRNVFDFLNEKLQGQAPGALEAGAAPAGRRSKDMYHASKSAKRALSLRLFQTEEKIERTQRDIRSIQEALARNAGRHSVASAQLQEKLAGAQRQLGQLRAQEAGLQQEQRKADTHKKMTEF
partner: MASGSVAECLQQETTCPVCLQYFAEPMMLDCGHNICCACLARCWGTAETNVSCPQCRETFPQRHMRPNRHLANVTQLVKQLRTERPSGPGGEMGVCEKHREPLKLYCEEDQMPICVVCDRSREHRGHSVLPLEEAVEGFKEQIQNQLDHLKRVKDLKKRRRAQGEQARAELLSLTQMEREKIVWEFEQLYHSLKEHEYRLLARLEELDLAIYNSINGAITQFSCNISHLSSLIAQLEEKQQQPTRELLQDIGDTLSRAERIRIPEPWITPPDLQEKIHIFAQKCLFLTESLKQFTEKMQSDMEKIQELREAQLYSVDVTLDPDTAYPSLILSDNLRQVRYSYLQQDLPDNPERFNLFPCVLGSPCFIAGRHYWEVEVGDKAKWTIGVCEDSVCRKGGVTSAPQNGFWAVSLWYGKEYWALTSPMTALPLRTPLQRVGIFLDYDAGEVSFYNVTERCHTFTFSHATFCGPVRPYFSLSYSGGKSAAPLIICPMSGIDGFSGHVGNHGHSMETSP
B5: Dynein light chain 2, cytoplasmic (Homo sapiens), Q96FJ2 (parent)
chain: MSDRKAVIKNADMSEDMQQDAVDCATQAMEKYNIEKDIAAYIKKEFDKKYNPTWHCIVGRNFGSYVTHETKHFIYFYLGQVAILLFKSG
partner: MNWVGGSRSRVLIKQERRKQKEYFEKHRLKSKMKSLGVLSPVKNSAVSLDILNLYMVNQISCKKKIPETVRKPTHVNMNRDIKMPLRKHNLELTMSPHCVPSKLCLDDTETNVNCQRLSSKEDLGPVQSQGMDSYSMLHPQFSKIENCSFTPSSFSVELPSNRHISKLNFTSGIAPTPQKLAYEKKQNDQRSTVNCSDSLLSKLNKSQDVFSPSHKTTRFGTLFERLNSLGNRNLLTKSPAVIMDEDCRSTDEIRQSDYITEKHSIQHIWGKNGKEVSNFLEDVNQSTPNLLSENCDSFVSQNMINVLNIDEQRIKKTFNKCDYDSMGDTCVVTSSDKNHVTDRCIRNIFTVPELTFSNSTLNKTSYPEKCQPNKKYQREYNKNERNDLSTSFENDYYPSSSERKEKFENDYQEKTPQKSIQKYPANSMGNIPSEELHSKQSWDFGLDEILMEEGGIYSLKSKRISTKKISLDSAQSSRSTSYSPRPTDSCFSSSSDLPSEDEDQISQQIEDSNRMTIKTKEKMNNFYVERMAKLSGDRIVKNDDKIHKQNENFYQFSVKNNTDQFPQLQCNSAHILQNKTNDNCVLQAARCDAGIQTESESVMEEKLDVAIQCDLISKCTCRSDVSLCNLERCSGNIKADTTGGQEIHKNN
B6: Trichoplein keratin filament-binding protein (Homo sapiens), Q9BT92 (parent)
chain: MALPTLPSYWCSQQRLNQQLARQREQEARLRQQWEQNSRYFRMSDICSSKQAEWSSKTSYQRSMHAYQREKMKEEKRRSLEARREKLRQLMQEEQDLLARELEELRLSMNLQERRIREQHGKLKSAKEEQRKLIAEQLLYEHWKKNNPKLREMELDLHQKHVVNSWEMQKEEKKQQEATAEQENKRYENEYERARREALERMKAEEERRQLEDKLQAEALLQQMEELKLKEVEATKLKKEQENLLKQRWELERLEEERKQMEAFRQKAELGRFLRHQYNAQLSRRTQQIQEELEADRRILQALLEKEDESQRLHLARREQVMADVAWMKQAIEEQLQLERAREAELQMLLREEAKEMWEKREAEWARERSARDRLMSEVLTGRQQQIQEKIEQNRRAQEESLKHREQLIRNLEEVRELARREKEESEKLKSARKQELEAQVAERRLQAWEADQQEEEEEEEARRVEQLSDALLQQEAETMAEQGYRPKPYGHPKIAWN
partner: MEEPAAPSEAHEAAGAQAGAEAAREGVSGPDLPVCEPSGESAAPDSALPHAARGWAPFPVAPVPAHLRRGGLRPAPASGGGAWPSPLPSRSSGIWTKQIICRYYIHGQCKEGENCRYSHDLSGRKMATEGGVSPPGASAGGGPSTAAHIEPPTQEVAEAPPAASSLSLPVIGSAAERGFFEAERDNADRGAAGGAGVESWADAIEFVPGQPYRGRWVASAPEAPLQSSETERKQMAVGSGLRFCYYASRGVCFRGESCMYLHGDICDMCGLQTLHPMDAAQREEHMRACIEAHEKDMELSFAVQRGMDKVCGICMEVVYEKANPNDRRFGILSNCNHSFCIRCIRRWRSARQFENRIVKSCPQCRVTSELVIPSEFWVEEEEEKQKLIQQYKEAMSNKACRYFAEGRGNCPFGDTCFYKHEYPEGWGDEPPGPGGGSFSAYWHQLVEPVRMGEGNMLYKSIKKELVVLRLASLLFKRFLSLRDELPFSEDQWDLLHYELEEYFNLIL
B7: Phosphoserine phosphatase (Homo sapiens), P78330 (parent)
chain: MVSHSELRKLFYSADAVCFDVDSTVIREEGIDELAKICGVEDAVSEMTRRAMGGAVPFKAALTERLALIQPSREQVQRLIAEQPPHLTPGIRELVSRLQERNVQVFLISGGFRSIVEHVASKLNIPATNVFANRLKFYFNGEYAGFDETQPTAESGGKGKVIKLLKEKFHFKKIIMIGDGATDMEACPPADAFIGFGGNVIRQQVKDNAKWYITDFVELLGELEE
partner: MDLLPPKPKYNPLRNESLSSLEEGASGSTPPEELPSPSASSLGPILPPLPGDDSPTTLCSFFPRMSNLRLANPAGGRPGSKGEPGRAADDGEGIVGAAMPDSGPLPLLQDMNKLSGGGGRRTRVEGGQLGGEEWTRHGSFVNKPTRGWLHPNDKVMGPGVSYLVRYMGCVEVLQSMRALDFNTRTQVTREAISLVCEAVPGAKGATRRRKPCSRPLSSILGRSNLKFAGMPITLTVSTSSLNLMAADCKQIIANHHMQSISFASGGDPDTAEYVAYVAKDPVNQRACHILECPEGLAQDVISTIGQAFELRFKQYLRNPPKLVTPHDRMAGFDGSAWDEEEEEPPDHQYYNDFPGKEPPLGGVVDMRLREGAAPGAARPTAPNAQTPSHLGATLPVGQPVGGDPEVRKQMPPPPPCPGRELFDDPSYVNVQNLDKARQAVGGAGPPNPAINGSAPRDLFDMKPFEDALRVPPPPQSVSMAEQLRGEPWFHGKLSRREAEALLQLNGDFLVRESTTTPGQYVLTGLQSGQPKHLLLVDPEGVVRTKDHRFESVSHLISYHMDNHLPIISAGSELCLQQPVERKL
B8: Protein FAM9B (Homo sapiens), Q8IZU0 (parent)
chain: MAAWGKKHAGKDPVRDECEERNRFTETREEDVTDEHGEREPFAETDEHTGANTKKPEDTAEDLTAKRKRMKMDKTCSKTKNKSKHALRKKQLKRQKRDYIHSLKLLNVLEEYITDEQKEEEEEEGEEEELIRIFQEQQKKWQQYRSVRRERLKEMKLLRDQFVKALEDFEDLCDRVFSDEDSELDN
partner: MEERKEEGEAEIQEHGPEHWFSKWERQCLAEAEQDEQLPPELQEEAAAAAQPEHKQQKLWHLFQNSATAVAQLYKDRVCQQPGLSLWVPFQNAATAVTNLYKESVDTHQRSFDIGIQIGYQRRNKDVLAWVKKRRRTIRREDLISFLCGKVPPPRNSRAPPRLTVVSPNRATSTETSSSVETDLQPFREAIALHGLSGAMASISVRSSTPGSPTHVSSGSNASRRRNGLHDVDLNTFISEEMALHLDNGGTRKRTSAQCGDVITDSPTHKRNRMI

Variants of: B1
Details: with goga2_human GOLGA2, Q08379

Row | Variant | effect of a mutation on the interaction
1 | C230R | with no effect

Variants of: B2
Details: with lce2d_human LCE2D

Row | Variant | effect of a mutation on the interaction
2 | R24H | with no effect
3 | R296K | with no effect
4 | A37T | with no effect

Variants of: B3
Details: with prpk_human TP53RK

Row | Variant | effect of a mutation on the interaction
5 | I277T | disrupting interaction strength

Variants of: B4
Details: with tri27_human TRIM27, P14373

Row | Variant | effect of a mutation on the interaction
6 | S61R | with no effect

Variants of: B5
Details: with rdic1_human REDIC1, Q86WS4

Row | Variant | effect of a mutation on the interaction
7 | E30D | with no effect

Variants of: B6
Details: with mkrn3_human MKRN3, Q13064

Row | Variant | effect of a mutation on the interaction
8 | E417K | with no effect
9 | K127R | with no effect

Variants of: B7
Details: with shc1_human SHC1, P29353

Row | Variant | effect of a mutation on the interaction
10 | T149M | with no effect
11 | T152I | with no effect

Variants of: B8
Details: with hapr1_human HAPSTR1, Q14CZ0

Row | Variant | effect of a mutation on the interaction
12 | R23H | with no effect
